Where no end group is shown, it is not given here.
T1: human neutrophil elastase (HNE) (Homo sapiens, UniProt P08246)
T1 sequence (P08246 30-267): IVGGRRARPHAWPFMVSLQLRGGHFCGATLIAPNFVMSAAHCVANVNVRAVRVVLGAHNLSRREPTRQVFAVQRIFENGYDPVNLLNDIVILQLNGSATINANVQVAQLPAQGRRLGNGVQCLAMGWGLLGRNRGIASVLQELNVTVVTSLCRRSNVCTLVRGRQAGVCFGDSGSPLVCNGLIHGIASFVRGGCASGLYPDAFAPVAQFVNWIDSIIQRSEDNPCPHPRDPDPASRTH

T2: human neutrophil elastase (human, UniProt P08246 30-247)
T2 construct: also called hNE; HNE
T2 sequence (looked up): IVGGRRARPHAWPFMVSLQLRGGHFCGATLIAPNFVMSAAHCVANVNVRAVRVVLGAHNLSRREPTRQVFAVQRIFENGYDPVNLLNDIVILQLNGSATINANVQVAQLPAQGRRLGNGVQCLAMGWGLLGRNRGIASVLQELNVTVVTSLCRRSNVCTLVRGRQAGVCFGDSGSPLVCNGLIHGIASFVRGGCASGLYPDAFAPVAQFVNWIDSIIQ

B1: DX-890 (designed binder)
chain: EACNLPIVRGPCIAFFPRWAFDAVKGKCVLFPYGGCQGNGNKFYSEKECREYCGVP
modifications: disulfide (positions not given here); also: three intramolecular disulfides, pairing not given here
notes: 56 aa, three intramolecular disulfides; also called EPI-hNE4; Native DX-890
B2: DX-890 conjugated to a 30 kDa PEG moiety (conjugated at pH 7.4) (designed binder)
chain: B1 chain
modifications: single 30 kDa mPEG (MPEG-SPA30K) attached, mono-PEGylated; reaction at pH 7.4, headed 'Random-Site Modification' (site not determined)
notes: also called PEG30-DX-890-7.4; +30K PEG, pH 7.4
B3: DX-890 conjugated to a 20 kDa PEG moiety (conjugated at pH 6) (designed binder)
chain: B1 chain
modifications: single 20 kDa mPEG (MPEG-SPA20K) attached, mono-PEGylated; reaction at pH 6.0, headed 'N-Terminal-Site Modification'
notes: also called PEG20-DX-890-6.0; +20K PEG, pH 6
B4: DX-890 conjugated to a 20 kDa PEG moiety (conjugated at pH 7.4) (designed binder)
chain: B1 chain
modifications: single 20 kDa mPEG (MPEG-SPA20K) attached, mono-PEGylated; reaction at pH 7.4, headed 'Random-Site Modification' (site not determined)
notes: also called PEG20-DX-890-7.4; +20K PEG, pH 7.4
B5: DX-890 conjugated to a 30 kDa PEG moiety (conjugated at pH 6) (designed binder)
chain: B1 chain
modifications: single 30 kDa mPEG (MPEG-SPA30K) attached, mono-PEGylated; reaction at pH 6.0, headed 'N-Terminal-Site Modification'
notes: also called PEG30-DX-890-6.0; +30K PEG, pH 6

What was measured:
[1] = Pharmacokinetic study in mice: plasma clearance of 125I-labeled protein, SEC of plasma; assay type: in vivo; settings: for α half life: Table 4 summary; for α Phase Clearance (%) / α Phase Half-life / β Phase Clearance (%) / β Phase Half-life (hr) / β Phase Half-life (min): tail vein injection, bi-exponential fit
Method: The pharmacokinetics of DX-890 and the PEGylated DX-890 compounds were measured by iodinating the proteins on available tyrosine residues and measuring their clearance in mice.
Samples were radio-iodinated by the indirect method using the IODO-GEN reagent (method from Pierce Chem. Co., and first described by Chizzonite [J Immunol 147, 1548-1556, 1991; J. Immunol 148, 3117-3124, 1992]). Samples were incubated with the ^125I-NaI solution for 9 min at which time tyrosine (10 mg/mL, a saturated solution) was added to quench the reaction. After about 15 min a 5 μl aliquot was removed as a standard for counting.
For each labeling reaction, the ^125I-labeled material (approx. 0.6 mL) was purified using a single 5 mL D-salt 1800 polyacrylamide column (Pierce Chem. Co.). […] Samples were applied in and columns were eluted with a series of 0.3 mL aliquots. Recovery of applied activity in all protein fractions was >75% and the total recovery of applied activity was >90%. The fractions containing peak levels of labeled protein were pooled for animal injections. To prepare the injectate, the pool was diluted with Tris buffer (pH 7.5) so that the 100 μL injection volume contained about 10 μg of labeled material.
Time of injection and time of sampling were recorded. At sacrifice, samples of 0.5 ml were collected into anticoagulant (0.02 ml EDTA). Cells were spun down and separated from plasma, and cells were stored at −20° C. Plasma was divided into two aliquots, one frozen and one stored at 4° C. for immediate analysis. Analysis included gamma counting of all samples. In addition, analysis was performed for two plasma samples (N=2) at each time point, i.e., 0, and 30 minutes, for ^125I-DX-890, and 0, 30 minutes, and 24 h for the ^125I-DX-890-PEG conjugates. A SEC-HPLC Superose-12 column was used with an in-line radiation detector (FIGS. 4-7).
The solid curves through the sets of data plotted in FIG. 3 are four-parameter, least-squares fits of Equation 3 to the data. Table 3 presents the values for % α Phase, α Phase Half-life, % β Phase, and β Phase Half-life extracted from the least squares fits to the in vivo clearance data set obtained for each of the four compounds tested in mice.

[2] = biological target: T1, human neutrophil elastase (HNE); assay: Ki measurement: tight-binding inhibition of HNE, fluorogenic substrate hydrolysis; assay type: biochemical
Method: (§1) Equilibrium inhibition constants for the PEGylated DX-890 samples were determined according to the tight-binding inhibition model with formation of a reversible complex (1:1 stoichiometry). Reactions were set up with 100 pM enzyme and a range of inhibitor concentrations (0-4 nM) at 30° C. in 50 mM HEPES, pH 7.5, 150 mM NaCl, and 0.1% Triton X-100. Following a 24 h incubation, substrate was added (25 μM) to the enzyme-inhibitor solution and the rate of substrate hydrolysis monitored at an excitation of 360 nm and an emission of 460 nm. Plots of the percent remaining activity versus active inhibitor concentration were fit by nonlinear regression analysis to Equation 1 to determine equilibrium dissociation constants. Both the Dyax DX-890 reference lot 00B16 and the DX-890 used for PEGylations, NBG2016/9 were analyzed for comparison. [formula] Where: • % A=percent activity • I=DX-890 • E=HNE concentration • Ki=equilibrium inhibition constant

[3] = Pharmacokinetic study in rabbits: plasma clearance of 125I-labeled protein, SEC of plasma; assay type: in vivo, New Zealand White rabbits
Method: Pharmacokinetic properties of DX-890 and PEG-30-DX-890 (conjugation at pH 7.4) were measured by iodinating the proteins and measuring clearance of the radiolabel from circulation in rabbits. The two DX-890 preparations were iodinated with iodine-125 using the iodogen method. After radiolabeling, the two labeled protein preparations were purified from unbound label by size exclusion chromatography (SEC). Fractions from the SEC column having the highest radioactivity were pooled. The purified, radiolabeled preparations were characterized for specific activity by gamma counting and for purity by SEC using a Superose-12 column equipped with an in-line radiation detector.
New Zealand White rabbits (ca. 2.5 Kg) were used for clearance measurements, with one animal used for each of the two labeled protein preparations. The radiolabeled preparation was injected into the animal via an ear vein. One blood sample was collected per animal per time point with early time points at approximately 0, 2.5, 5, 7, 15, 30, 60, and 90 minutes post injection and later time points at 4, 8, 16, 24, 30, 48, 72, 96, 144, 168, and 192 hours post injection. Samples (about 0.5 mL) were collected into anticoagulant (EDTA) containing tubes. Cells were separated from the plasma fraction by centrifugation. The plasma fraction was divided into two aliquots. One plasma aliquot was stored at −70° C. and the other aliquot was kept at 4° C. for immediate analyse's. Sample analyses included radiation counting for clearance rate determinations and SEC chromatography to test for changes in the size distribution of radiolabeled material in vivo (stability).

[4] = biological target: T2, human neutrophil elastase; assay: enzyme inhibition, tight-binding model; 100 pM hNE (summary table, repeats Table 3)
Method: as §1, with “comparison.” for “comparison. [formula] Where: • % A=percent activity • I=DX-890 • E=HNE concentration • Ki=equilibrium inhibition constant”

[5] = biological target: T2, human neutrophil elastase; assay: enzyme inhibition, tight-binding model; 100 pM hNE, 0-4 nM inhibitor, 24 h incubation at 30 C, fluorogenic substrate
Method: as §1, with “comparison.” for “comparison. [formula] Where: • % A=percent activity • I=DX-890 • E=HNE concentration • Ki=equilibrium inhibition constant”

[6] = biological target: T2, human neutrophil elastase; assay: enzyme inhibition, tight-binding model; 100 pM hNE; reference native DX-890
Method: as §1, with “comparison.” for “comparison. [formula] Where: • % A=percent activity • I=DX-890 • E=HNE concentration • Ki=equilibrium inhibition constant”

[7] = ear vein injection, bi-exponential fit

Molecule	α Phase Clearance (%) [1]	α Phase Half-life [1]	β Phase Clearance (%) [1]	β Phase Half-life (hr) [1]	β Phase Half-life (min) [1]	Ki [4]	Ki [5]	further results
PEG20-DX-890-6.0: DX-890 conjugated to a 20 kDa PEG moiety (MPEG-SPA20K, conjugated at pH 6), mono-PEGylated (EACNLPIVRGPCIAFFPRWAFDAVKGKCVLFPYGGCQGNGNKFYSEKECREYCGVP)	53%	0.278 h	47%	4.9 h	296 min	–	–	α half life [1]: 0.25 h
PEG20-DX-890-7.4: DX-890 conjugated to a 20 kDa PEG moiety (MPEG-SPA20K, conjugated at pH 7.4), mono-PEGylated (EACNLPIVRGPCIAFFPRWAFDAVKGKCVLFPYGGCQGNGNKFYSEKECREYCGVP)	58%	0.417 h	42%	5.1 h	307 min	–	–	–
PEG30-DX-890-6.0: DX-890 conjugated to a 30 kDa PEG moiety (MPEG-SPA30K, conjugated at pH 6), mono-PEGylated (EACNLPIVRGPCIAFFPRWAFDAVKGKCVLFPYGGCQGNGNKFYSEKECREYCGVP)	33%	0.32 h	67%	8.4 h	505 min	–	–	β phase half life [1]: about 8 hr; α half life [1]: 0.317 h
PEG30-DX-890-7.4: DX-890 conjugated to a 30 kDa PEG moiety (MPEG-SPA30K, conjugated at pH 7.4), mono-PEGylated (EACNLPIVRGPCIAFFPRWAFDAVKGKCVLFPYGGCQGNGNKFYSEKECREYCGVP; not fully specified)	–	–	–	–	–	–	–	Ki relative to native DX-890 [2]: twice; fraction of total material in the slow clearance portion relative to unmodified DX-890 [3]: nearly doubles; in vivo half-life [3]: about 3 days; increase of T1/2β versus unmodified protein [3]: about 25 fold; time label remains stably associated with injectate peaks ([3]; SEC analysis of plasma samples): at least 72 hours; % α [3, 7]: 55%; % β [3, 7]: 45%; T1/2α [3, 7]: 2.73 h; T1/2β [3, 7]: 69.23 h; relative levels of circulating radiolabel versus unmodified protein ([3]; one day post injection): more than 100 fold
B1	–	–	–	–	–	7 pM	7 pM	–
B2	–	–	–	–	–	16 pM	16 pM	fold Ki relative to native DX-890 [6]: 2 fold
B3	–	–	–	–	–	7 pM	7 pM	–
B4	–	–	–	–	–	8 pM	8 pM	–
B5	–	–	–	–	–	8 pM	8 pM	–

— US20070020252A1, “Modified protease inhibitors” (priority 2003, published 2007)
